Data: IntAct's records for PubMed 19151722

B1: Protein transport protein TIP20 (Saccharomyces cerevisiae), P33891 (parent)
chain: MNGIDDLLNINDRIKQVQNERNELASKLQNLKQSLASNDTEVALSEVIAQDIIEVGASVEGLEQLRAKYGDLQILNKLEKVAVQQTQMQAGVDKLDSFERQLDELAEQPPDQFTLDDVKALHSKLTSVFATVPQINNIDSQYAAYNKLKSKVTGKYNDVIIQRLATNWSNTFDQKLLEAQWDTQKFASTSVGLVKCLRENSTKLYQLSLLYLPLEEETQNGDSERPLSRSNNNQEPVLWNFKSLANNFNVRFTYHFHATSSSSKIETYFQFLNDYLAENLYKCINIFHDDCNGLTKPVIHEQFINYVLQPIRDKVRSTLFQNDLKTLIVLISQILATDKNLLNSFHYHGLGLVSLISDEVWEKWINYEVEMANRQFINITKNPEDFPKSSQNFVKLINKIYDYLEPFYDLDFDLLVRYKLMTCSLIFMNLTSSYLDYILTVDSLNETRTKEQELYQTMAKLQHVNFVYRKIKSLSSNFIFIQLTDIVNSTESKKYNSLFQNVENDYEKAMSTDMQNSIVHRIQKLLKETLRNYFKISTWSTLEMSVDENIGPSSVPSAELVNSINVLRRLINKLDSMDIPLAISLKVKNELLNVIVNYFTESILKLNKFNQNGLNQFLHDFKSLSSILSLPSHATNYKCMSLHELVKILKLKYDPNNQQFLNPEYIKTGNFTSLKEAYSIKYLKDTKIQDALYRIIYGNIL
partner: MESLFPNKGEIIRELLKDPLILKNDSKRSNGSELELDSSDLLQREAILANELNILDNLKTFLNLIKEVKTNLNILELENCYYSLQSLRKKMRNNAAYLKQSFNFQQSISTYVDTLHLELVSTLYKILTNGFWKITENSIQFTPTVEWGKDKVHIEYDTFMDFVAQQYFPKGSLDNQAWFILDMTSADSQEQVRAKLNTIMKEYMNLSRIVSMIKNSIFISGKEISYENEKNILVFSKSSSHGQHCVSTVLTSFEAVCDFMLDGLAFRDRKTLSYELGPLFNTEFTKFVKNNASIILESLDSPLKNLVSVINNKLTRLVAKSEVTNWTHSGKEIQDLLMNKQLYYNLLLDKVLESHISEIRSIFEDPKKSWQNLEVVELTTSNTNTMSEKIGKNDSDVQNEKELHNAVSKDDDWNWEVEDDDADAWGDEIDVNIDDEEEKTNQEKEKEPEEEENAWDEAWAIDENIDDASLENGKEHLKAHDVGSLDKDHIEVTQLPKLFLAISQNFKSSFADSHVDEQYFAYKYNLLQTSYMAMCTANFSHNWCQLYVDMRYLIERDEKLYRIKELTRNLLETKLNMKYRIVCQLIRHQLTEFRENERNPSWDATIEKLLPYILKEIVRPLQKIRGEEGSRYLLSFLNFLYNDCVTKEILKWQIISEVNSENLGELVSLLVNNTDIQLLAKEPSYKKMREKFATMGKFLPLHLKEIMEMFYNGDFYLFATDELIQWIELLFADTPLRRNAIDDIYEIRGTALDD
B2: Protein transport protein DSL1 (Saccharomyces cerevisiae), P53847 (parent)
chain: B1 partner
partner: B1 chain

Variants of: B1
Conditions: with dsl1_yeast DSL1, P53847

Variant	effect of a mutation on the interaction
V17E	disrupting interaction
I10D;L28E	disrupting interaction

Variants of: B2
Conditions: with tip20_yeast TIP20, P33891

Variant	effect of a mutation on the interaction
L48E	disrupting interaction
L55E	disrupting interaction
L58D	disrupting interaction
